Publication PMC6666309 (Biochemistry, 2019)

B1: pro-cathepsin D (enzyme)
chain: not shown
modifications: fluorescently labelled in the MST assay (dye and site not stated)
B2: full-length progranulin (natural protein, human, UniProt P28799 18-593, looked up)
chain: TRCPDGQFCPVACCLDPGGASYSCCRPLLDKWPTTLSRHLGGPCQVDAHCSAGHSCIFTVSGTSSCCPFPEAVACGDGHHCCPRGFHCSADGRSCFQRSGNNSVGAIQCPDSQFECPDFSTCCVMVDGSWGCCPMPQASCCEDRVHCCPHGAFCDLVHTRCITPTGTHPLAKKLPAQRTNRAVALSSSVMCPDARSRCPDGSTCCELPSGKYGCCPMPNATCCSDHLHCCPQDTVCDLIQSKCLSKENATTDLLTKLPAHTVGDVKCDMEVSCPDGYTCCRLQSGAWGCCPFTQAVCCEDHIHCCPAGFTCDTQKGTCEQGPHQVPWMEKAPAHLSLPDPQALKRDVPCDNVSSCPSSDTCCQLTSGEWGCCPIPEAVCCSDHQHCCPQGYTCVAEGQCQRGSEIVAGLEKMPARRASLSHPRDIGCDQHTSCPVGQTCCPSLGGSWACCQLPHAVCCEDRQHCCPAGYTCNVKARSCEKEVVSAQPATFLARSPHVGVKDVECGEGHFCHDNQTCCRDNRQGWACCPYRQGVCCADRRHCCPAGFRCAARGTKCLRREAPRWDAPLRDPALRQLL

Experiments:
full-length progranulin = biological target: B2; experiment: MST
pro-cathepsin D = biological target: B1; experiment: cell-based or functional assay
Chain of pro-cathepsin D (P07339 21-412): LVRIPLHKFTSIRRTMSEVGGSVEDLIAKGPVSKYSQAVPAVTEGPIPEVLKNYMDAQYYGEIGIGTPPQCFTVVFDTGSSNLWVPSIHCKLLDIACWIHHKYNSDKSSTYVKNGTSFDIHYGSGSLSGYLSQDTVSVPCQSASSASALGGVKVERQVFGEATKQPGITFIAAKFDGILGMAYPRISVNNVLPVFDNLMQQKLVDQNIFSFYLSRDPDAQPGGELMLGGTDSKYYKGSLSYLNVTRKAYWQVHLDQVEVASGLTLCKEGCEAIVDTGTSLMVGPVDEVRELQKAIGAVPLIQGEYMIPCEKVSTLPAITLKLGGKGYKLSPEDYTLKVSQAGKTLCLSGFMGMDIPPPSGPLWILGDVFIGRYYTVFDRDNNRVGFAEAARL

Binder	Kd (full-length progranulin)	DSF - ΔTm of proCTSD (1 μM proCTSD with 2 μM PGRN, pH 7.4) (pro-cathepsin D)
B1	950 nM	
B2		-0.41 °C
